{
  "source": "patent US20210002623A1",
  "about": "“AMINOPEPTIDASE AND ITS USES” (Centre national de la recherche scientifique, priority 2017, published 2021)",
  "key": {"[1]": {"assay": "Effect of pH on MjTET activity", "format": "biochemical", "conditions": "pH 6 and 10.5; Leu-pNA, 75° C.", "method": "The effect of pH on MjTET activity was determined in pH range varying from 6 to 11. The buffers used were: PIPES, pH 6-7.5; CHES, pH 8.2-10 and CAPS, pH 10.5-11. All buffers were used at 50 mM concentration in presence of 150 mM KCl, 0.1 mM CoCl2, 4 μg/mL of MjTET and 5 mM Leu-pNA as substrate. The given pH values are at 75° C. Incubation was done at 75° C. for 5 min and the quantity of produced pNA was evaluated by measuring the absorbance at 405 nm."}, "[2]": {"assay": "Effect of temperature on MjTET activity", "format": "biochemical", "conditions": "Leu-pNA", "method": "Different temperatures ranging from 20 to 90° C. were tested on MjTET activity. Incubation was done in 50 mM CHES, 150 mM KCl, 0.1 mM CoCl2, pH 8.5 in presence of 4 μg/mL of protein and 5 mM Leu-pNA for 5 min. Absorbance of released pNA was measured at 405 nm."}, "[3]": {"assay": "Effect of temperature on MjTET stability (remaining aminopeptidase activity after incubation at 85° C.)", "format": "physicochemical", "conditions": "incubated at 85° C.; remaining activity on Leu-pNA", "method": "The effect of temperature on MjTET stability was assayed by incubating the enzyme (160 μg/ml) at 85° C. Aliquot of 10 μl was taken at different time intervals, and the remaining aminopeptidase activity was assayed against 5 mM Leu-pNA in 390 μl of 50 mM CHES, 150 mM KCl, 0.1 mM CoCl2, pH 8.5 incubated at 85° C. for 5 min. Enzymatic stability of MjTET was evaluated by measuring the quantity of produced pNA at 405 nm."}, "[4]": {"assay": "Hydrolytic activity on synthetic chromogenic and fluorogenic monoacyl compounds", "format": "biochemical", "conditions": "for cleavage of tryptophan from substrate Nt end: FIG. 4; for amidolytic activity against aromatic amino acids: phenylalanine and tyrosine, MjTET compared with PhTET2 (FIG. 4)", "method": "The hydrolytic activity of MjTET on synthetic chromogenic and fluorogenic compounds was determined by using different aminoacyl-pNAs and aminoacyl-AMCs through the following procedure. Reactions were initiated by addition of 4 μg/mL of enzyme to a pre-warmed mixture containing 5 mM of the chromogenic or fluorogenic compound in 50 mM CHES, 150 mM KCl and 0.1 mM CoCl2, pH 8.2, in a total volume of 400 μl. Incubation was performed at 75° C. for 5 min. The quantity of liberated pNA was evaluated by measuring the absorbance at λ=405 nm in a JASCO V-630 spectrophotometer, and for AMC by measuring the fluorescence using excitation and emission wavelengths of 360 and 440 nm, respectively in a JASCO FP-8500 spectrofluorometer. Three replicates and two enzyme blanks were assayed for each experimental point. Additional enzymatic studies were performed in order to investigate MjTET capacities to hydrolyze longer substrates (H-Trp-Phe-Tyr-Ser(PO3H2)-Pro-Arg-pNA (SEQ ID NO: 3), H-Met-Trp-Ala-Glu-Asn-Lys (SEQ ID NO:4), H-Tyr-Asp-Thr-Ser-Ile-Val-Gln-Arg (SEQ ID NO:5), H-Asp-Ala-Tyr-Pro-Ser (SEQ ID NO: 6) and H-Glu-Gly-Ile. 2 μg/ml (final concentration) of MjTET were added to a pre-warmed mixture of 0.75 mM peptide, 50 mM CHES, 150 mM KCl, 0.1 mM CoCl2, pH 8.5. To avoid water evaporation, 20 μl of mineral oil were added on the top of the total volume. The reaction incubation was done at 85° C. during 6 min. Aliquot of 80 μl was then removed and added to 220 μl of 2% acetonitrile (ACN), 0.1% trifluoroacetic acid (TFA). Proteins were removed by centrifugation at 13,000 rpm during 15 min. 100 μl of the supernatant were retrieved and injected on Nova-Pak C18 column, (4 μm, 3.9×300 mm, (Waters)) in a HPLC purifier system (PerkinElmer), equilibrated with 2% ACN, 0.1% TFA. […] Chromatographic runs were carried out at room temperature."}, "[5]": {"tested_on": "H-Trp-Phe-Tyr-Ser(PO3H2)-Pro-Arg-pNA", "assay": "Hydrolysis of longer peptide substrates followed by reverse phase HPLC", "format": "biochemical", "conditions": "after 5 minutes, 85° C.", "method": "The hydrolytic activity of MjTET on synthetic chromogenic and fluorogenic compounds was determined by using different aminoacyl-pNAs and aminoacyl-AMCs through the following procedure. Reactions were initiated by addition of 4 μg/mL of enzyme to a pre-warmed mixture containing 5 mM of the chromogenic or fluorogenic compound in 50 mM CHES, 150 mM KCl and 0.1 mM CoCl2, pH 8.2, in a total volume of 400 μl. Incubation was performed at 75° C. for 5 min. The quantity of liberated pNA was evaluated by measuring the absorbance at λ=405 nm in a JASCO V-630 spectrophotometer, and for AMC by measuring the fluorescence using excitation and emission wavelengths of 360 and 440 nm, respectively in a JASCO FP-8500 spectrofluorometer. Three replicates and two enzyme blanks were assayed for each experimental point. Additional enzymatic studies were performed in order to investigate MjTET capacities to hydrolyze longer substrates (H-Trp-Phe-Tyr-Ser(PO3H2)-Pro-Arg-pNA (SEQ ID NO: 3), H-Met-Trp-Ala-Glu-Asn-Lys (SEQ ID NO:4), H-Tyr-Asp-Thr-Ser-Ile-Val-Gln-Arg (SEQ ID NO:5), H-Asp-Ala-Tyr-Pro-Ser (SEQ ID NO: 6) and H-Glu-Gly-Ile. 2 μg/ml (final concentration) of MjTET were added to a pre-warmed mixture of 0.75 mM peptide, 50 mM CHES, 150 mM KCl, 0.1 mM CoCl2, pH 8.5. To avoid water evaporation, 20 μl of mineral oil were added on the top of the total volume. […]"}, "[6]": {"tested_on": "peptide YFLMNENRYTSWNSE (SEQ ID NO: 2)", "assay": "Time necessary to hydrolyse 50% of a 15 amino acid peptide at different temperatures", "format": "biochemical", "method": "In order to evaluate the effect of the temperature on the activity of MjTET, the inventors evaluated the relative amount of intact peptides further to an incubation with the TET protein at different temperatures.\nThe inventors have measured the relative amount of intact peptide further to an incubation with MjTET.\nMjTET activity was measured on the following peptide: YFLMNENRYTSWNSE (SEQ ID NO: 2). The inventors evaluated the time necessary to hydrolyse 50% of the peptide at different tempertaures"}},
  "data": [
    {"molecule": "MjTET: TET aminopeptidase (M42 family, dodecameric) from Methanocaldococcus jannaschii comprising SEQ ID NO: 1 (protein, listed as Methanococcus jannaschii) MSVVEYLKKLSKLHGISGREDSVREFMKKELEKYCDSVEIDNFGNLIAKRGNKGKKIMIAAHMDEIGLMVKYIDDNGFLKFTKIGGIYDPTILNQKVVVHGSKGDLIGVLGSKPPHRMKEEEKTKIIKYEDMFIDIGAESREEAIEMGVNIGTWVSFLSEVYDLGKNRLTGKAFDDRVGCAVLLEVMKRLSEEDIDCQVYAVGTVQEEVGLKGARVSAFKINPDVAIALDVTIAGDHPGIKKEDAPVDLGKGPVVGIVDASGRGLIAHPKVLDMIKAVSEKYKIDVQWEVGEGGTTDATAIHLTREGIPTGVISVPARYIHTPVEVIDKRDLEKTVELVYNCIKEVNNFF", "values": [
      {"measurement": "percentage of LAP activity maintained", "setting": "[1]", "result": "more than 50%"},
      {"measurement": "temperature of maximal LAP activity", "setting": "[2]; pH 8.5, 0.1 mM CoCl2, 20 to 90° C. tested", "result": 85, "unit": "°C"},
      {"measurement": "LAP activity in mesophilic conditions", "setting": "[2]; under 50° C.", "result": "No activity was detected"},
      {"measurement": "half-life", "setting": "[3]", "result": "eight"},
      {"measurement": "cleavage of tryptophan from substrate Nt end", "setting": "[4]", "result": "unable to cleave"},
      {"measurement": "amidolytic activity", "setting": "[4]; against Leu-pNA, 75° C., pH 8.2", "result": "optimal amidolytic activity"},
      {"measurement": "amidolytic activity", "setting": "[4]; against hydrophobic residues such as phenylalanine, methionine and tyrosine", "result": "significant amidolytic activities"},
      {"measurement": "amidolytic activity", "setting": "[4]; aspartate, glutamate, cysteine and proline monoacyl substrates", "result": "no activity was detected"},
      {"measurement": "amidolytic activity", "setting": "[4]; blocked residues and D-stereo configuration: Ac-Leu-pNA and D-Leu-pNA", "result": "no activity was detected"},
      {"measurement": "amidolytic activity against aromatic amino acids", "setting": "[4]", "result": "more efficient"},
      {"measurement": "amidolytic activity", "setting": "[4]; polar and positively charged residues", "result": "Reduced activities"},
      {"measurement": "hydrolysis of the original peptide substrate", "setting": "[5]", "result": "almost hydrolyzed"},
      {"measurement": "Time necessary to hydrolyse 50% of the peptide", "setting": "[6]; 20 ° C.", "result": 75, "unit": "h"},
      {"measurement": "Time necessary to hydrolyse 50% of the peptide", "setting": "[6]; 30 ° C.", "result": 55, "unit": "h"},
      {"measurement": "Time necessary to hydrolyse 50% of the peptide", "setting": "[6]; 40 ° C.", "result": "3,9 h"},
      {"measurement": "Time necessary to hydrolyse 50% of the peptide", "setting": "[6]; 50 ° C.", "result": 1.3, "unit": "h"},
      {"measurement": "Time necessary to hydrolyse 50% of the peptide", "setting": "[6]; 60 ° C.", "result": 1, "unit": "h"},
      {"measurement": "Time necessary to hydrolyse 50% of the peptide", "setting": "[6]; 70 ° C.", "result": 0.6, "unit": "h"},
      {"measurement": "Time necessary to hydrolyse 50% of the peptide", "setting": "[6]; 80 ° C.", "result": 0.25, "unit": "h"}
    ]},
    {"molecule": "PhTET2: leucyl aminopeptidase TET complex of Pyrococcus horikoshii with broad activity against neutral amino acids (protein) MEVRNMVDYELLKKVVEAPGVSGYEFLGIRDVVIEEIKDYVDEVKVDKLGNVIAHKKGEGPKVMIAAHMDQIGLMVTHIEKNGFLRVAPIGGVDPKTLIAQRFKVWIDKGKFIYGVGASVPPHIQKPEDRKKAPDWDQIFIDIGAESKEEAEDMGVKIGTVITWDGRLERLGKHRFVSIAFDDRIAVYTILEVAKQLKDAKADVYFVATVQEEVGLRGARTSAFGIEPDYGFAIDVTIAADIPGTPEHKQVTHLGKGTAIKIMDRSVICHPTIVRWLEELAKKHEIPYQLEILLGGGTDAGAIHLTKAGVPTGALSVPARYIHSNTEVVDERDVDATVELMTKALENIHELKI", "values": [
      {"measurement": "hydrolytic activity toward N-terminal phenylalanine residues", "setting": "[4]", "result": "devoid of hydrolytic activity"},
      {"measurement": "cleavage of tryptophan from substrate Nt end", "setting": "[4]", "result": "unable to cleave"},
      {"measurement": "amidolytic activity against aromatic amino acids", "setting": "[4]", "result": "weak activity"},
      {"measurement": "Time necessary to hydrolyse 50% of the peptide", "setting": "[6]; 40 ° C.", "result": 0.5, "unit": "h"}
    ]}
  ]
}
